Test results reported in patent US9959384 (BIONIZ, dated 2018).
No end group written: not given here.

Target: T1, human common gamma chain (γc, CD132) (human, UniProt P31785 23-369)
T1 sequence (looked up): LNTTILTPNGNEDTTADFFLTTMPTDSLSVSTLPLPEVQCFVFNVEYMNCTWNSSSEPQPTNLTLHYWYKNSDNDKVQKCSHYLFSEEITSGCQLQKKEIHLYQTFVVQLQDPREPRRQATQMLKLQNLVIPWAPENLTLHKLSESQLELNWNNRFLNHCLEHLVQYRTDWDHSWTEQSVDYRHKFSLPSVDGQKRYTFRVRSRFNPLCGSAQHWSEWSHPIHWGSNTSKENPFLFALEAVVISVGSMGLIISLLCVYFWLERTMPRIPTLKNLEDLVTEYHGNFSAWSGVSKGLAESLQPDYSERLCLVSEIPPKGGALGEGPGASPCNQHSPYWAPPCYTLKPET
Assay: cell-based or functional assay

## IKEFLQSFIHIVQSIINT (not fully specified) [BNZ132-1 peptide]
  IC50 of inhibition of IL-2/IL-15-induced proliferation of ex vivo human T-lymphocytes (IL-2 + IL-15, 0.1 nM each): 0.15 µM
